{
  "source": "patent US6528275B1",
  "about": "“Substrates and inhibitors of proteolytic enzymes” (Peptide Therapeutics Limited, priority 1996, dated 2003)",
  "proteins": {"B1": {"name": "Der pI (Dermatophagoides pteronyssinus) (protein)", "chain": "TNACSINGNAPAEIDLRQMRTVTPIRMQGGCGSCWAFSGVAATESAYLAYRNQSLDLAEQELVDCASQHGCHGDTIPRGIEYIQHNGVVQESYYRYVAREQSCRRPNAQRFGISNYCQIYPPNVNKIREALAQTHSAIAVIIGIKDLDAFRHYDGRTIIQRDNGYQPNYHAVNIVGYSNAQGVDYWIVRNSWDTNWGDNGYGYFAANIDLMMIEEYPYVVIL", "notes": "tissue SmithKline-Beecham, U.K (crude mite extract); host or cells: crude house dust mite extract"}},
  "assay_in_all_cases": "Der pI substrate assay with FRET peptides (fluorescence, Km, kcat/Km)",
  "type_in_all_cases": "biochemical, house dust mite",
  "details_in_all_cases": "other: purified Der pI; peptides SEQ ID Nos. 1-76; pH 8.25",
  "key": {"[1]": {"substrate": "CC(C)CC[C@H](NC(=O)[C@H](C)NC(=O)[C@H](Cc1ccc(-c2ccccc2)cc1)NC(=O)c1ccccc1N)C(=O)N[C@@H](CO)C(=O)N[C@@H](Cc1ccc(O)c([N+](=O)[O-])c1)C(=O)N[C@@H](CC(=O)O)C(N)=O", "procedure": "(§1) Using the general techniques described above, the following compounds were prepared and assayed as potential substrates against Der pI purified as described above.\n(§2) Each mixture of 20 compounds in the libraries of the apparatus described herein was screened at a concentration of 1.0 μM per compound in an assay against the cysteinyl protease Der pI.\n(§3) Plate assays were carried out in 96 well plate format, using 0.1 ug of Der pI per 100 μL assay volume in each well and using 20 μM of the substrate. All assays were performed in Assay Buffer (AB; 50 mM potassium phosphate, pH 8.25 containing 1 mM ethylenediaminetetraacetic acid (EDTA) and 1 mM dithiothreitol (DTT). The Der pI enzyme is pre-activated by addition of DTT and this in incubated at room temperature for 5 min. prior to initiation of the assay. As an example for the screening methodology, each well contains a 5 μL of a 20 μM solution of the test compound in DMSO, 10 μL of a 200 μM aqueous solution of the substrate, 2, and 85 μL of Der pI in AB is added to initiate the reaction. Enzyme activity is monitored by fluorescence using 320 nm for excitation and 420 nm for the emission wavelengths using a Labsystems Fluroskan Ascent machine. Kinetic measurements were carried out using a Hitachi F-4500 Fluorescence Spectrophotometer."}, "[2]": {"substrate": "CC(C)CC[C@H](NC(=O)[C@H](C)NC(=O)[C@H](CC(C)C)NC(=O)c1ccccc1N)C(=O)N[C@@H](CO)C(=O)N[C@@H](Cc1ccc(O)c([N+](=O)[O-])c1)C(=O)N[C@@H](CC(=O)O)C(N)=O", "procedure": "as §1, §2, §3"}, "[3]": {"substrate": "CC(C)CC[C@H](NC(=O)[C@H](C)NC(=O)[C@H](Cc1ccc(-c2ccccc2)cc1)NC(=O)c1ccccc1N)C(=O)N[C@H](C(=O)N[C@@H](Cc1ccc(O)c([N+](=O)[O-])c1)C(=O)N[C@@H](CC(=O)O)C(N)=O)C(C)(C)C", "procedure": "as §1, §2, §3"}, "[4]": {"substrate": "CC(C)CC[C@H](NC(=O)[C@H](C)NC(=O)[C@H](Cc1ccc(-c2ccccc2)cc1)NC(=O)c1ccccc1N)C(=O)N1C[C@H](O)C[C@H]1C(=O)N[C@@H](Cc1ccc(O)c([N+](=O)[O-])c1)C(=O)N[C@@H](CC(=O)O)C(N)=O", "procedure": "as §1, §2, §3"}, "[5]": {"substrate": "CC(C)CC[C@H](NC(=O)[C@H](C)NC(=O)[C@H](Cc1ccc(-c2ccccc2)cc1)NC(=O)c1ccccc1N)C(=O)N[C@@H](CCCCN)C(=O)N[C@@H](Cc1ccc(O)c([N+](=O)[O-])c1)C(=O)N[C@@H](CC(=O)O)C(N)=O", "procedure": "as §1, §2, §3"}, "[6]": {"substrate": "CCCC[C@H](NC(=O)[C@H](C)NC(=O)[C@@H](NC(=O)[C@H](Cc1ccc(-c2ccccc2)cc1)NC(=O)c1ccccc1N)C(C)C)C(=O)N[C@@H](CO)C(=O)N[C@@H](Cc1ccc(O)c([N+](=O)[O-])c1)C(=O)N[C@@H](CC(=O)O)C(N)=O", "procedure": "as §1, §2, §3"}, "[7]": {"substrate": "CC(C)CC[C@H](NC(=O)[C@H](C)NC(=O)[C@@H](NC(=O)c1ccccc1N)C(C)C)C(=O)N[C@@H](CO)C(=O)N[C@@H](Cc1ccc(O)c([N+](=O)[O-])c1)C(=O)N[C@@H](CC(=O)O)C(N)=O", "procedure": "as §1, §2, §3"}, "[8]": {"substrate": "CC(C)CC[C@H](NC(=O)[C@H](CC[S+](C)[O-])NC(=O)[C@@H](NC(=O)c1ccccc1N)C(C)C)C(=O)N[C@@H](CO)C(=O)N[C@@H](Cc1ccc(O)c([N+](=O)[O-])c1)C(=O)N[C@@H](CC(=O)O)C(N)=O", "procedure": "as §1, §2, §3"}, "[9]": {"substrate": "CC(C)CC[C@H](NC(=O)[C@H](C)NC(=O)[C@H](Cc1ccc(-c2ccccc2)cc1)NC(=O)c1ccccc1N)C(=O)N[C@@H](CC1CCCCC1)C(=O)N[C@@H](Cc1ccc(O)c([N+](=O)[O-])c1)C(=O)N[C@@H](CC(=O)O)C(N)=O", "procedure": "as §1, §2, §3"}, "[10]": {"substrate": "CC(C)[C@H](NC(=O)c1ccccc1N)C(=O)N[C@@H](C)C(=O)N[C@@H](CCCCN)C(=O)N[C@@H](CO)C(=O)N[C@@H](Cc1ccc(O)c([N+](=O)[O-])c1)C(=O)N[C@@H](CC(=O)O)C(N)=O", "procedure": "as §1, §2, §3"}, "[11]": {"substrate": "CC(C)CC[C@H](NC(=O)[C@H](C)NC(=O)[C@H](Cc1ccc(-c2ccccc2)cc1)NC(=O)c1ccccc1N)C(=O)N[C@@H](CC(C)C)C(=O)N[C@@H](Cc1ccc(O)c([N+](=O)[O-])c1)C(=O)N[C@@H](CC(=O)O)C(N)=O", "procedure": "as §1, §2, §3"}, "[12]": {"substrate": "CC(C)CC[C@H](NC(=O)[C@H](C)NC(=O)[C@H](Cc1ccc2ccccc2c1)NC(=O)c1ccccc1N)C(=O)N[C@@H](CO)C(=O)N[C@@H](Cc1ccc(O)c([N+](=O)[O-])c1)C(=O)N[C@@H](CC(=O)O)C(N)=O", "procedure": "as §1, §2, §3"}},
  "data": [
    {"protein": "B1", "values": [
      {"measurement": "Km", "setting": "[1]", "value": 2.5, "unit": "µM"},
      {"measurement": "Km", "setting": "[2]", "value": 18, "unit": "µM"},
      {"measurement": "Km", "setting": "[3]", "value": 4, "unit": "µM"},
      {"measurement": "Km", "setting": "[4]", "value": 4, "unit": "µM"},
      {"measurement": "Km", "setting": "[5]", "value": 2, "unit": "µM"},
      {"measurement": "Km", "setting": "[6]", "value": 10, "unit": "µM"},
      {"measurement": "Km", "setting": "[7]", "value": 4, "unit": "µM"},
      {"measurement": "Km", "setting": "[8]", "value": 35, "unit": "µM"},
      {"measurement": "Km", "setting": "[9]", "value": 2.5, "unit": "µM"},
      {"measurement": "Km", "setting": "[10]", "value": 14, "unit": "µM"},
      {"measurement": "Km", "setting": "[11]", "value": 3.7, "unit": "µM"},
      {"measurement": "Km", "setting": "[12]", "value": 15, "unit": "µM"}
    ]}
  ]
}
